Consider 36 sequences from the supplement of paper PMC12764529.

± gives the half width of the 95% confidence interval.

The nature of data set [1]: folding stability dG unfold from trypsin proteolysis; higher = more stable. The method, boiled down: (§1)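 Mini-proteins designed to be under 80 residues and free of cysteine were carried in a PA-tagged cDNA display construct and digested with trypsin and with chymotrypsin. Each protease was applied at 11 threefold-diluted concentrations, alongside a no-protease condition, before sequencing. K50 came from Bayesian fitting of the sequencing counts, and unfolding free energy was obtained by comparing it with a sequence-predicted unfolded-state K50 and a shared folded-state K50, for each protease separately or for both together. Designs were retained only if their AlphaFold2 dimer inter-PAE exceeded 15.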

Data set [2] in a line: folding stability dG unfold (combined trypsin and chymotrypsin); higher = more stable. The method, boiled down: as §1
Data set [3] in a line: folding stability dG unfold from chymotrypsin proteolysis; higher = more stable. The method, boiled down: as §1

For “SAGGSAGGGMNATPKKIKVTITITDPSGNKTTVTREFDSEEEAEKFVKELLPPNRSYTVTYEPESAGGSAGG [r6_290_JUSTAS]”, the “folding stability dG unfold” value was 12.3 ± 0.31 kJ/mol in data set [1], 10.7 ± 0.285 kJ/mol in data set [2] and 8.681 ± 0.0711 kJ/mol in data set [3].
As to “SAGGSAGGGMSFTLTSEKKVPGVNVTLTTVTGPGVTITYDPATGKATVEFPDSVTTVPLSSITTSAGGSAGG [r6_512_JUSTAS]”, the “folding stability dG unfold” value in data set [1] turned out to be 2.4 ± 0.1 kJ/mol; in data set [2] it was 2.5 ± 0.414 kJ/mol; in data set [3], 1.5 ± 0.669 kJ/mol.
Take “SAGGSAGGGMSLEAPIGEIEKPEGTDTVVITVYENGKWHTIPLPNFKNIKIEKDPNSDVVTILLSAGGSAGG [r6_806_JUSTAS]”: the entries for the “folding stability dG unfold” value in data set [1], in data set [2] and in data set [3] were 5.41 ± 0.418 kJ/mol, 6.37 ± 0.753 kJ/mol and 7.14 ± 0.544 kJ/mol, respectively.
For “SAGGSAGGGMTPEEARALAEAAGYEDVEVTVLSRDPENNVTVVEVTARAPGGGGAASVGTYTAPSAGGSAGG [r6_699_JUSTAS]”, the “folding stability dG unfold” value was -3.22 ± 0.879 kJ/mol in data set [1], -1.66 ± 0.753 kJ/mol in data set [2] and -1.02 ± 1.13 kJ/mol in data set [3].
As to “SAGGSAGGGNWERVEFTFTKRVYDPKNGKPMKDVMVEIDVYRDPNEGALEIEIEMPPGFDYIMISAGGSAGG [r6_206_TrROS]”, the entries for the “folding stability dG unfold” value in data set [1], in data set [2] and in data set [3] were 11.7 ± 1.17 kJ/mol, 16.4 ± 1.21 kJ/mol and 17.7 ± 0.962 kJ/mol, respectively.
“SAGGSAGGGPKVTVEVTESKVYELEDGSYVAVNTYTVTFEAEGKTVKVTFYRTFPKGFAGGPFSSAGGSAGG [r6_799_TrMRF]”: the “folding stability dG unfold” value amounted to 9.53 ± 0.268 kJ/mol in data set [1], 10.1 ± 0.711 kJ/mol in data set [2] and 10.7 ± 0.586 kJ/mol in data set [3].
As for “SAGGSAGGGRAEILVEPVEPEPRARVVIRLEGSGRLVVFPVEEPLEPEHVEEAVEAAIKALEENSAGGSAGG [r6_330_TrMRF]”, the “folding stability dG unfold” value is -1.09 ± 0.711 kJ/mol in data set [1], 1.64 ± 0.272 kJ/mol in data set [2] and 2.71 ± 0.0544 kJ/mol in data set [3].
“SAGGSAGGGSLSKPKKYELVATFTFPGTVEEAKEFLEKLLPEDWKVEIEETPDFLKIKLYKRLDSAGGSAGG [r6_952_TrMRF]”: the entries for the “folding stability dG unfold” value in data set [1], in data set [2] and in data set [3] were 17 ± 0.544 kJ/mol, 17 ± 0.264 kJ/mol and 17 ± 0.205 kJ/mol, respectively.
As for “SAGGSAGGGSSITPVEVTPLPEDKYRVLIRITTYLPGGKPRTEEIEVEMPPDETAEEAAARVLSSAGGSAGG [r6_329_JUSTAS]”, the “folding stability dG unfold” value in data set [1] worked out at 1.43 ± 0.184 kJ/mol; in data set [2], 1.54 ± 0.314 kJ/mol; in data set [3], 1.21 ± 0.46 kJ/mol.
With “SAGGSAGGGYAEFETTAVLPDGRVYRAKIVLSPDPDIVKIRLFSPEGEEEIELHPDDPLLLTPGSAGGSAGG [r6_926_TrMRF]”, the “folding stability dG unfold” value in data set [1] turned out to be 6.1 ± 0.142 kJ/mol; in data set [2] it was 6.79 ± 0.213 kJ/mol; in data set [3], 6.95 ± 0.259 kJ/mol.
In the case of “SAGGSAGGGYELRVTVYDPRTGKPVAEATFTATSPEEAEARFEEIRRALPPEYLVFAEIRPVPESAGGSAGG [r6_688_TrMRF]”, the “folding stability dG unfold” value was 20.7 ± 1.59 kJ/mol in data set [1], 22 ± 0.46 kJ/mol in data set [2] and 21.7 ± 0.544 kJ/mol in data set [3].
For the sequence “SAGGSAGGIEAVREALEDMPPGEEKEITIPVPGDPNYYIKFTIRTKGNKIKIPIEIEPMPPGQMSAGGSAGG [r6_393_TrROS]”, the “folding stability dG unfold” value in data set [1] was 2.65 ± 0.669 kJ/mol; in data set [2] it was 4.53 ± 1.59 kJ/mol; in data set [3], 6.81 ± 1.63 kJ/mol.
With “SAGGSAGGIHPDVKVKLVKIVSVEEGEGEVVAKALVELPNGERVVVSSEVLKELLEENPDVDVSSAGGSAGG [r6_77_TrMRF]”, the “folding stability dG unfold” value in data set [1] was determined as 1.26 ± 0.234 kJ/mol; in data set [2], 3.43 ± 0.753 kJ/mol; in data set [3], 4.29 ± 0.28 kJ/mol.
Turning to “SAGGSAGGIKAPDGQEYHIILFPITIPMEQKVERPMPDGDPRPETRTVSIKIPIWFAIPPGQKISAGGSAGG [r6_526_TrROS]”, the “folding stability dG unfold” value in data set [1] was determined as 4.75 ± 0.121 kJ/mol; in data set [2], 5.38 ± 0.544 kJ/mol; in data set [3], 6.29 ± 0.502 kJ/mol.
The corresponding values for “SAGGSAGGIKEILKEARENPENAESVTIRIPMEVPVTRYDPDNGEPETHPHPVPGEITIPPDDLSAGGSAGG [r6_560_TrROS]” are 1.82 ± 0.0795 kJ/mol, 3.72 ± 0.213 kJ/mol and 4.86 ± 0.18 kJ/mol.
Take “SAGGSAGGIKYRVMVHNPESGRWHRIDDIEIDPPDGRIKIRFPGNGKEITIPPGYPIMISPDMLSAGGSAGG [r6_885_TrROS]”: the “folding stability dG unfold” value was 2.77 ± 0.418 kJ/mol in data set [1], 3.33 ± 0.297 kJ/mol in data set [2] and 3.32 ± 0.711 kJ/mol in data set [3].
In the case of “SAGGSAGGIMIDSPEQMEEFAKDFFQNGYHEVPIHVMDPNGNWQTFPFTIEVPPPKPEPDPGKKSAGGSAGG [r6_258_TrROS]”, the entries for the “folding stability dG unfold” value in data set [1], in data set [2] and in data set [3] were -2.71 ± 0.502 kJ/mol, 0.465 ± 1.21 kJ/mol and 1.72 ± 1.05 kJ/mol, respectively.
On to “SAGGSAGGITIRDPDNGIEVKILKITPNHMIIQAEFPNGRNYMIEMPPDSLKPGDEIPMTVHPVSAGGSAGG [r6_152_TrROS]”, for which the figures for the “folding stability dG unfold” value in data set [1], in data set [2] and in data set [3] were -0.0335 ± 0.711 kJ/mol, -0.619 ± 1.26 kJ/mol and -0.587 ± 1.72 kJ/mol, respectively.
The corresponding values for “SAGGSAGGKEFEIEKVEITVENGTITIRMIVRDKETNEYYEVEKTITFDPETKELHVEIKVKKVSAGGSAGG [r6_604_TrROS_Hall]” are 17.5 ± 0.544 kJ/mol, 16.3 ± 0.669 kJ/mol and 13.5 ± 0.418 kJ/mol.
As for “SAGGSAGGKEFKIVKVEIEEREDGRLKIHITVEPGATPEEVKKALEELGFEVEEVEVVEVEEEESAGGSAGG [r6_543_TrROS_Hall]”, the “folding stability dG unfold” value worked out at 8.08 ± 0.36 kJ/mol in data set [1], 9.39 ± 0.385 kJ/mol in data set [2] and 9.907 ± 0.0962 kJ/mol in data set [3].
For the sequence “SAGGSAGGKEKLIVKIKIEKKVKLENGEEKKVKKTIVVEMTPEEVKELLKKLKKENVTEVEIFPSAGGSAGG [r6_984_TrROS_Hall]”, the results for the “folding stability dG unfold” value in data set [1], in data set [2] and in data set [3] were 11.3 ± 0.711 kJ/mol, 10.7 ± 1.09 kJ/mol and 10.5 ± 1.3 kJ/mol, respectively.
Take “SAGGSAGGKEVKIEIYDSDDGILLVEVPDLDDAVEAVEKLGVELELVPYDPEKGRLLLRLRIPGSAGGSAGG [r6_510_TrMRF]”: the “folding stability dG unfold” value in data set [1] is 1.09 ± 0.879 kJ/mol; in data set [2], 2.68 ± 0.669 kJ/mol; in data set [3], 3.35 ± 0.837 kJ/mol.
The corresponding values for “SAGGSAGGKGGKPKIKLEPINTNPNGWQTFRFEVTPEAIDDLMDDFPNVQVERHPGEMYITVRNSAGGSAGG [r6_395_TrROS]” are -1.75 ± 2.34 kJ/mol, -0.434 ± 0.962 kJ/mol and -0.179 ± 1.63 kJ/mol.
Take “SAGGSAGGKIAVIPYVPEEDIPPELRELFGKEGSLSPEEFQELFAEAVARELGEEGAIDAVIVESAGGSAGG [r6_654_TrMRF]”: the “folding stability dG unfold” value came out at 2.59 ± 0.134 kJ/mol in data set [1], 3.26 ± 0.628 kJ/mol in data set [2] and 3.02 ± 0.155 kJ/mol in data set [3].
“SAGGSAGGKIEEIAKKLNLEVESIEYDKETKKVTVTIKVNGKLYKIEIYVENGKIVKIKIEELPSAGGSAGG [r6_373_TrROS_Hall]”: the “folding stability dG unfold” value in data set [1] is 13.8 ± 0.837 kJ/mol; in data set [2], 16.8 ± 0.962 kJ/mol; in data set [3], 18 ± 1.05 kJ/mol.
On to “SAGGSAGGKIIINGKEIEPGETITLPNGLKLEVVDGKIKLVVRDEETGEEKEITLSAEELKKLLSAGGSAGG [r6_940_TrROS_Hall]”, for which the “folding stability dG unfold” value was determined as 11.1 ± 0.502 kJ/mol in data set [1], 12.9 ± 0.255 kJ/mol in data set [2] and 13.6 ± 0.36 kJ/mol in data set [3].
The corresponding values for “SAGGSAGGKILVIEIEVDSPEKAVEKAKEIVKELGLPESVKIKEIVFFKEEGDKYRALVLVDLDSAGGSAGG [r6_282_TrMRF]” are 15.3 ± 0.962 kJ/mol, 16.5 ± 0.837 kJ/mol and 17.1 ± 0.397 kJ/mol.
Turning to “SAGGSAGGKIRVEVEVEPLPGPEEGGRLLRVRVRVYNENGELLEEIEFPARSPEEAEERLRKAASAGGSAGG [r6_974_TrMRF]”, the “folding stability dG unfold” value turned out to be 8.56 ± 0.184 kJ/mol in data set [1], 13.2 ± 0.586 kJ/mol in data set [2] and 14.5 ± 0.343 kJ/mol in data set [3].
Consider “SAGGSAGGKITINGKEYEIVEVKYDKETNTLHFLIKNKDGTLLKISISPNGKIEIKEVPAEELLSAGGSAGG [r6_699_TrROS_Hall]”, for which the entries for the “folding stability dG unfold” value in data set [1], in data set [2] and in data set [3] were 14.2 ± 0.962 kJ/mol, 15.8 ± 0.962 kJ/mol and 15.6 ± 0.502 kJ/mol, respectively.
As for “SAGGSAGGKKEIKIYLVSDLPEEDAIETAEKIKKGLAEELGVSPEELNITVEVAILDPENLELNPESAGGSA [r15_918_TrMRF]”, the “folding stability dG unfold” value stood at 0.748 ± 0.205 kJ/mol in data set [1], 0.42 ± 0.628 kJ/mol in data set [2] and 0.0674 ± 0.201 kJ/mol in data set [3].
The corresponding values for “SAGGSAGGKKIEMKIIKNEDGTKLIVFKSKEEAEEALKKAGYEVKIVSVNEEKGYVVIEIRKKKSAGGSAGG [r6_510_TrROS_Hall]” are 4.88 ± 0.18 kJ/mol, 7.94 ± 0.301 kJ/mol and 9.24 ± 0.167 kJ/mol.
“SAGGSAGGKKKKKPPKKKYFYVEIEIELTPEEIEKLKELFPDVKVEVEEKDGKLRVRITVRVKLSAGGSAGG [r6_685_TrROS_Hall]”: the “folding stability dG unfold” value in data set [1] worked out at 11.7 ± 0.669 kJ/mol; in data set [2] it was 13.6 ± 0.364 kJ/mol; in data set [3] it was 14.6 ± 0.209 kJ/mol.
The corresponding values for “SAGGSAGGKKKVIEITVKITLFNENGEEVATFEAKITIIEDKETKEYYAVITFKDGSTLVIKLPSAGGSAGG [r6_923_TrROS_Hall]” are 15.4 ± 0.837 kJ/mol, 20.4 ± 1.97 kJ/mol and 21.4 ± 0.837 kJ/mol.
Regarding “SAGGSAGGKKKYRALITLRSKDGKPIAPIEIETDSPEELLKTAKKIIEEATKENEPVEIKVEEYSAGGSAGG [r6_285_TrMRF]”, the “folding stability dG unfold” value was found to be 4.57 ± 0.226 kJ/mol in data set [1], 6.64 ± 0.46 kJ/mol in data set [2] and 7.52 ± 0.389 kJ/mol in data set [3].
With “SAGGSAGGKKVIVKIKIKVKDKETGEEKEIEITLEFETEEEAKAAIEALKALPPGVEIKIELLPSAGGSAGG [r6_999_TrROS_Hall]”, the “folding stability dG unfold” value in data set [1] came out at 18.5 ± 0.879 kJ/mol; in data set [2], 17.5 ± 1.17 kJ/mol; in data set [3], 11.4 ± 0.406 kJ/mol.
Regarding “SAGGSAGGKKYRVVVYNPETGEWVEVEEVEFDPETGEVRVRLPGSGKEVTIPKDYPVYLNPELDSAGGSAGG [r6_884_TrMRF]”, the “folding stability dG unfold” value in data set [1] was determined as 9.26 ± 0.146 kJ/mol; in data set [2], 12.2 ± 0.188 kJ/mol; in data set [3] it was 13.23 ± 0.126 kJ/mol.
